Experimental data as given in patent US20150284465A1 (Chugai, published 2015).
Positions count from the first letter of the chain named. Read-outs that look alike come from different tables or passages of the source.

T1: SR344 (N-terminal 1st to 344th amino acids of soluble human IL-6R) (human, UniProt P08887 20-344, limits assumed)
T1 construct: also called recombinant soluble IL-6 receptor; soluble human IL-6 receptor
T1 sequence (looked up): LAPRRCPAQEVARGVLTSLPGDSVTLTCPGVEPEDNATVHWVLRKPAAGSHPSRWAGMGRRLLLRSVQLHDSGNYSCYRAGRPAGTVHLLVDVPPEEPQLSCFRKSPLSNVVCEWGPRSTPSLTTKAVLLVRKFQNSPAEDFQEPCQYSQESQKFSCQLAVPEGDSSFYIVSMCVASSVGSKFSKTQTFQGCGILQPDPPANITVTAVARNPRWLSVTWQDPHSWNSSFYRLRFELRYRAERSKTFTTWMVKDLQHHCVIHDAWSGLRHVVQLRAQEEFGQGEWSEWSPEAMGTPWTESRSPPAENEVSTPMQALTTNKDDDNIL

B1: Fv3-M73 (antibody, V domains shown)
VH: QVQLQESGPGLVKPSETLSLTCAVSGHSISHDHAWSWVRQPPGEGLEWIGFISYSGITNYNPTLQGRVTISRDNSKNTLYLQMNSLRAEDTAVYYCARSLARTTAMDYWGEGTLVTVSS
VL: DIQMTQSPSSLSASVGDSVTITCQASRDISSHLNWYQQKPGKAPELLIYYGSHLLSGVPSRFSGSGSGTDFTFTISSLEAEDAATYYCGQGNRLPYTFGQGTKVEIER
notes: also called VH4-M73/VL1-kappa
B2: Fv4-M73 (antibody, V domains shown)
VH: B1 VH with T63S
VL: B1 VL with R27T
notes: also called VH3-M73/VL3-kappa
B3: H53/L28 (antibody, IgG1, V domains shown)
VH: QVQLQESGPGLVKPSETLSLTCAVSGYSISDDHAWSWVRQPPGEGLEWIGYISYSGITNYNPSLKGRVTISRDTSKNQFSLKLSSVTAADTAAYYCARSLARTTAMDYWGEGTLVTVSS
VL: DIQMTQSPSSLSASVGDSVTITCQASQDISSYLNWYQQKPGKAPELLIYYGSELHSGVPSRFSGSGSGTDFTFTISSLEAEDAATYYCQQGNSLPYTFGQGTKVEIE
notes: Made from the vectors of the IgG1 antibody WT
B4: PF1 antibody (antibody, IgG1, V domains shown)
VH: B3 VH with S99V, T103I
VL: B3 VL with Q89G, S93R
notes: also called PF1-IgG1; PF1_H/PF1_L
B5: WT-M58 (antibody)
heavy: QVQLQESGPGLVRPSQTLSLTCTVSGYSITSDHAWSWVRQPPGRGLEWIGYISYSGITTYNPSLKSRVTMLRDTSKNQFSLRLSSVTAADTAVYYCARSLARTTAMDYWGQGSLVTVSSASTKGPSVFPLAPSSKSTSGGTAALGCLVKDYFPEPVTVSWNSGALTSGVHTFPAVLQSSGLYSLSSVVTVPSSNFGTQTYTCNVDHKPSNTKVDKTVERKSCVECPPCPAPPVAGPSVFLFPPKPKDTLMISRTPEVTCVVVDVSQEDPEVQFNWYVDGVEVHNAKTKPREEQFNSTFRVVSVLTVVHQDWLNGKEYKCKVSNKGLPAPIEKTISKTKGQPREPQVYTLPPSQEEMTKNQVSLTCLVKGFYPSDIAVEWESNGQPENNYKTTPPMLDSDGSFFLYSKLTVDKSRWQEGNVFSCSVMHEALHNHYTQKSLSLSP
light: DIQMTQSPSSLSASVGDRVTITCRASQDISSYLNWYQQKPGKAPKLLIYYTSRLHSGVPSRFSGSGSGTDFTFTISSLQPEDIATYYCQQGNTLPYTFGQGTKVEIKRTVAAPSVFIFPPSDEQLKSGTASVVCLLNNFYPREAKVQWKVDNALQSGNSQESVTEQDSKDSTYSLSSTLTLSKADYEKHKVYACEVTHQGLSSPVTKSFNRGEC
notes: also called M58 (WT)
B6: WT-M73 (antibody)
heavy: B5 heavy with N432A
light: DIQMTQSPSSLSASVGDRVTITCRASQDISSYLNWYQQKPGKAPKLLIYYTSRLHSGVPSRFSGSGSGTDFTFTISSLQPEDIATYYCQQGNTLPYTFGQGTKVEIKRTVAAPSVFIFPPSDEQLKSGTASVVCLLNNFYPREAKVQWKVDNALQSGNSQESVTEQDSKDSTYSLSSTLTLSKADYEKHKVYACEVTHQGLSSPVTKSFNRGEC

Columns and labels:
[1] = target: T1, SR344 (N-terminal 1st to 344th amino …); assay: SPR (Biacore T100), SR344 as analyte, 37 C
[2] = target: T1, SR344 (N-terminal 1st to 344th amino …); assay: SPR (Biacore T100), antibody captured on anti-IgG (γ-chain specific) F(ab')2, SR344 as analyte, pH 7.4, 37 C
Experimental: Antigen-antibody reaction kinetics was analyzed using Biacore T100 (GE Healthcare). The SR344-antibody interaction was measured by immobilizing appropriate amounts of anti-IgG (γ-chain specific) F(ab′)2 onto a sensor chip by amine coupling method, binding antibodies of interest onto the chip at pH 7.4, and then flowing IL-6 receptor SR344 adjusted to be various concentrations at pH 7.4 over the chip as an analyte. All measurements were carried out at 37° C. The kinetic parameters, association rate constant kₐ (1/Ms) and dissociation rate constant kd (1/s) were calculated from the sensorgrams obtained by measurement. Then, KD (M) was determined based on the rate constants. The respective parameters were determined using Biacore T100 Evaluation Software (GE Healthcare).

[3] = target: T1, SR344 (N-terminal 1st to 344th amino …); assay: SPR (Biacore T100), antibody captured on Protein A/G, SR344 as analyte, 37 C
[4] = target: T1, SR344 (N-terminal 1st to 344th amino …); assay: as above; remark: listed apart in the source
Experimental: The antigen-antibody interaction was measured by immobilizing purified Recomb Protein A/G (Pierce) (hereinafter “Protein A/G”) onto a sensor chip, binding various antibodies onto the chip, and then flowing the antigen over the chip as an analyte. Various concentrations of recombinant soluble IL-6 receptor (SR344) were used as the antigen. The measurement conditions were the same as described in Example 2.
Kinetic analysis was carried out using Biacore-specific data analysis software Biacore T100 Evaluation Software.

[5] = target: T1, SR344 (N-terminal 1st to 344th amino …); assay: as above; remark: listed apart in the source
Experimental: (§1) This measurement was carried out under the same conditions described in Example 2. The running buffer used was HBS-EP+, and the flow rate was 20 μl/min. Each antibody was prepared so that about 100 RU of the antibody was bound to Protein A/G. SR344 was prepared at 0, 0.065, 0.131, and 0.261 μg/ml using HBS-EP+ and used as an analyte. In the first step of the measurement, the antibody in solution was bound to Protein A/G, and the analyte solution was allowed to interact therewith. After three minutes of interaction, the solution was switched to HBS-EP+, and the dissociation phase was monitored for 10 or 15 minutes. After measurement of the dissociation phase, the sensor chip was regenerated by washing with 10 μl of 10 mM glycine-HCl (pH 1.5). The association, dissociation, and regeneration constitute one analysis cycle. Each antibody was measured according to this cycle.
The sensorgram was kinetically analyzed using the Biacore-specific data analysis software, Biacore T100 Evaluation Software.

[6] = target: T1, SR344 (N-terminal 1st to 344th amino …); assay: SPR (Biacore T100), Protein A/G capture, SR344 at 0, 0.36 and 1.4 µg/ml, 15 min dissociation, 37 C
Experimental: as §1
The Tm of purified H96/PF1L-IgG1 was determined by the method described in Example 5. The affinity measurement was carried out under essentially the same conditions used in Example 5. Note that the concentration of SR344 was adjusted to 0, 0.36, and 1.4 μg/ml, and the dissociation phase was monitored for 15 minutes.

[7] = target: T1, SR344 (N-terminal 1st to 344th amino …); assay: as above; remark: listed apart in the source
[8] = target: T2, soluble human FcRn (complex of FcRn and β2-microglobulin) (human, UniProt P55899 24-290; P16213 21-119); assay: SPR (Biacore 3000), human FcRn as analyte, pH 6.0
T2 construct: also called hFcRn; copies: 1 + 1

[9] = target: T2, soluble human FcRn (complex of FcRn and …); assay: SPR (Biacore 3000), antibody captured on Protein L or anti-human kappa chain antibody, human FcRn as analyte, pH 6.0, steady state affinity
Experimental: (§2) The binding to human FcRn was assessed using Biacore 3000. An antibody was bound to Protein L or rabbit anti-human IgG Kappa chain antibody immobilized onto a sensor chip, human FcRn was added as an analyte for interaction with the antibody, and the affinity (KD) was calculated from the amount of bound human FcRn. Specifically, Protein L or rabbit anti-human IgG Kappa chain antibody was immobilized onto sensor chip CM5 (Biacore) by the amine coupling method using 50 mM Na-phosphate buffer (pH 6.0) containing 150 mM NaCl as the running buffer. Then, an antibody was diluted with a running buffer containing 0.02% Tween20, and injected to be bound to the chip. Human FcRn was then injected and the binding activity of the human FcRn to antibody was assessed.
(§3) The affinity was computed using BlAevaluation Software. The obtained sensorgram was used to calculate the amount of hFcRn bound to the antibody immediately before the end of human FcRn injection. The affinity of the antibody for human FcRn was calculated by fitting with the steady state affinity method.

[10] = target: T2, soluble human FcRn (complex of FcRn and …); assay: as above; remark: listed apart in the source
Experimental: as §2, §3

T2 sequence (P55899 24-290 limits assumed, chain 1 of 2): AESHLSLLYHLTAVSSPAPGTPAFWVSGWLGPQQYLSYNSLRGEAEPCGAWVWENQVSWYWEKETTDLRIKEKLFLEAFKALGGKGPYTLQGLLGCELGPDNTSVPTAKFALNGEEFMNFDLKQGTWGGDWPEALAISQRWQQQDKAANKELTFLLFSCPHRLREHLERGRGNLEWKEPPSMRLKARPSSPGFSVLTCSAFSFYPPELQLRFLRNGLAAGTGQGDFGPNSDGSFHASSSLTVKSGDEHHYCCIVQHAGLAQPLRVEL
T2 sequence (P16213 21-119 limits assumed, chain 2 of 2): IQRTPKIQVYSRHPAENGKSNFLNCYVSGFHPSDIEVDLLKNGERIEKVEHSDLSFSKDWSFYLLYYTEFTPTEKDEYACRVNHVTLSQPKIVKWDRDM

Binder | fold higher affinity than TOCILIZUMAB [1] [fold] | Kd [2] [nM] | koff [2] [s⁻¹] | kon [2] [M⁻¹ s⁻¹] | fold improved affinity against WT [3] [fold] | Kd [5] [nM] | koff [5] [s⁻¹] | kon [5] [M⁻¹ s⁻¹] | binding activity relative to WT-IgG1 [8] [fold] | Kd [9] [nM] | also measured
B1 | 3 | 1 | 0.00087 | 850000 |  |  |  |  |  |  | 
B2 | 2 | 1.4 | 0.001 | 750000 |  |  |  |  |  |  | 
B3 |  |  |  |  | ~6 | 0.68 | 0.00052 | 760000 |  |  | Kd [4]: 0.68 nM; koff [4]: 0.00052 s⁻¹; kon [4]: 760000 M⁻¹ s⁻¹
B4 |  |  |  |  | ~150 | 0.027 | 3.5e-05 | 1.3e+06 |  |  | Kd [6]: 0.031 nM; koff [6]: 4.2e-05 s⁻¹; kon [6]: 1.4e+06 M⁻¹ s⁻¹; Kd [7]: 0.03 nM; koff [7]: 4.4e-05 s⁻¹; kon [7]: 1.5e+06 M⁻¹ s⁻¹
B5 |  |  |  |  |  |  |  |  | ~1.4 | 1170 | Kd [10]: 1030 nM
B6 |  |  |  |  |  |  |  |  | ~3.8 | 420 | 
